Legend:
purified protein [1] = substrate: CC(C)(C)c1ccc(O)c(O)c1; experiment: purified protein; assay type: biochemical, Olea europaea; settings: diphenolase, 50 mM sodium phosphate pH 6.8, 1 mM SDS, 25 °C, substrate range 0.2–7 mM
purified protein [2] = substrate: NCCc1ccc(O)cc1; experiment: purified protein; assay type: biochemical, Olea europaea; settings: monophenolase, pH 6.8, 25 °C, substrate range 0.2–7 mM

B1: OePPO3 (Olea europaea subsp. europaea) (protein)
chain: APISAPDVTTCGPADLPQGAAPTNCCPPPTGEILDFKFPPPPTTMRVRPAAHLADEAYIAKFNRAVELMRALPDDDPRSFRQQANVHCAYCDGAYDQVGFPNLELQVHNSWLFFPFHRYYLYFFERILGNLIDDPTFAMPFWNYDAPGGMHLPAIYANQNSSLYDPLRDSAHQPPAFIDLNFSGSDANTGEAQQTSRNLTIMYRQMVSNSKTPRLFFGSPYRRGEDPNPGSGSIENIPHGPVHVWTGDRTQPNFENMGNFYSAGRDPIFFAHHSNIDRMWTLWKTLGGRRQDITDPDFLDASFVFYDENAKMVRVKVRDCLDHTKLGYVYQDVEVPWLRSRPKPRISSVVRKLKKLVRANAADIPSPKDIFPAKLDQVIKVMVKRPKKKRSKKEKDELEEILIIQGIELERDVYAKFDVFINDEDDEESTPENTEFAGSFVNVPHKHKNDKKIKTNLRLSITDILEDLDAEDDQHVLVTLVPKNFGDAITVHGIKIELDD
notes: GST tag cut off with PreScission (pGEX6P.1); E. coli BL21(DE3); about 54 kDa
Purified protein [1]
  Km: 800 µM
  Vmax: 130 µmol/min/mg
Purified protein [2]
  Km: 700 µM
  Vmax: 2.7 µmol/min/mg

From paper PMC9962951, “Olive Polyphenol Oxidase Gene Family” (International Journal of Molecular Sciences, 2023)
